Measured values: article PMC9457330 (Proceedings of the National Academy of Sciences of the …, 2022)

Target: the molecule itself
Assay: native gel or EMSA

B1: SLC25A11 (endogenous, mouse) (natural protein, UniProt Q9CR62 1-314, looked up)
chain: MAATASPGAGRMDGKPRTSPKSVKFLFGGLAGMGATVFVQPLDLVKNRMQLSGEGAKTREYKTSFHALTSILKTEGLKGIYTGLSAGLLRQATYTTTRLGIYTVLFERLTGADGTPPGFLLKALIGMTAGATGAFVGTPAEVALIRMTADGRLPADQRRGYKNVFNALVRIAREEGVPTLWRGCIPTMARAVVVNAAQLASYSQSKQFLLDSGYFSDNILCHFCASMISGLVTTAASMPVDIVKTRIQNMRMIDGKPEYKNGLDVLLKVVRYEGFFSLWKGFTPYYARLGPHTVLTFIFLEQMNKAYKRLFLSG
stoichiometry N: 2
